Laboratory results as given in the domain aggregation screens of Martell et al. (2025).

Assay: soluble fraction after stress (log2 fold change); higher = more stays soluble; pooled small domains, quantitative proteomics
Conditions: stress: 75 degC
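Also: 20 min heating vs room temperature control held 20 min.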

Sequence	soluble fraction (log2)
HMSPIKAGDLVKITGTKYYRGQTIPSWVKAKNWFVHSVSGDRAVINKSEDGKNAIMSPVKVSNLALVT	0.0902
HMSPILTPDQATKAYGKDGVLYIHSNKERTIYIYDVTGRTVRILEAVEGENQINGLEKGIYFLEGQKVAV	-1.36
HMSPLQLGNYNTLRITRFTDHGAYLDGGDVGEILMPKTYVLPEMKPGDEVRVFVYLDQEERLVGTTET	-0.622
HMSPPVIQQGQDVRLIYKGTGFAVSNEGKALNTAADGQVARARTGGGQTVSGIARPGGIIEIT	0.391
HMSPQPPNQEAVRTRILDQAAHLFLTIGYAETTVRRIAGAVGIKAASLYHHFGSKDEVFESILIR	0.274
HMSPRADRSVNLDVGETVQIDDWGADGTAQIRYRGAPWTAVLRPGHTPHPGPHRVIELVGSRLLVEP	0.0352
HMSPRAIYVTTSDLNMRMQPSPNAYKRGVAPRGTELLVVEWGDDWSKVIFEGDTAYAASRYLSYVKDEP	-1.74
HMSQDEVVADMKADLGPDADNIIRSNIQWADGLVRKGILTESEREELDVMGGTPEAQRILVKLRTMQG	0.178
HMSQDTLIENGKVFLIHKVVAGQTLYGLSKAYNITIEDIIKYNPQAENGIKIGEDIKIFLKEE	-0.924
HMSQEHTVPDYKDMEATVVYADLTQKGLNYEIAQETSPTIKEGNVTQTIPGMNEKVVSGDTITVFVSTGTG	0.431
HMSQIDLQIGHKIKSKRRKLGISQADMAKKLYISPSYLNLIESGKRKINVDLLLKLSNELGIEMSDIS	-1.97
HMSQIILSARSGHAALRHRLGELGYTFADKEFDDIYERFLEVADQKKEVYDEDLESIVQERQRD	0.00498
HMSQITEADYIPNTDKTWGELMEETGESLPNLVERYNNEMTKSNGKEQPQSIIQRIIEDYQMVS	0.253
HMSQLSDEQELRDIARGIIEGNPNEAEKYRAGRTGLLGFFVGKLMAETEGKANPRLASRILKELLE	-0.144
HMSQLSQIVDAFGGLRPFARALNKPPSTVQYWIEKGGIPASVVSPIMKLSEEKGLGLSRDQVSAAVS	0.441
HMSQLTVGTVVTGNASLQTQGLKLPSFASGSRPASPNIGQMIWNSSDAKAQIWNGSEWDDVG	-0.0784
HMSQNVSFTVDSGQAGLRLDVFLSQADPAFSRSQIKYAIEEGDVTVNGKEPKVSQHLKDGDIVELHLE	0.0493
HMSQQEAQLNSLVKIYESMKPKDAARIFDTLDMDVLLDVVMRMKEARSAAVLAEMTPDRAKEVTLQLAD	-0.912
HMSQTDQALRHLIREAWATLPQRQQQAVELAYYEGLPDTEIAARLNQPVEEVKTSIVLGMAHLREALHSY	-0.811
HMSQTDTDAKDARQKILALLSDGEWHQKTELLKIDAPKEAVSNAIRYLVLEELISIDHAKVRA	-0.447
HMSQTVKYVNTTSGLNMRTGPATSYAKITTIAYGQSVNVLSTSNGWSKINYSGSTGYVSSQYLQSKKPS	-2.77
HMSQVHYAVLFKNASAAEATEIVTYARETLGVQDIKINANGDILVPEDKVEEMRVSMSIAGFPK	0.23
HMSQVSTKYINVSSAYVRSKPSKDGEIVTSLIKNTDVTVTGENGDWYKIKFNNYEGYIFKELLSDSKLEE	-0.442
HMSRAMFEMHADWQPTDSIRGLLGRAGLPTDIAKLDQSRIGDFVNHWFGKPDRNTADSWNGLLVGWLKRTQ	-1.18
HMSREEFLAGLEEALAGEVPASVIRENLNYYNSYISQEMAKGRTVDEIVDEIGEPRIVARTIIDSSEAAGE	0.319
HMSRELVILGNSMLNNALKAFHVSPASIKKKHWDKLILDYHLESKNNILIDIALGKRINVMVAHQLTSIID	0.408

Sequence	soluble fraction (log2)
HMSREVTVPPLSGLTLRDAARTLAERGLLMEAEGQGAVHRQDPPAGTRVPTGTPVRVFLTLPEQNS	0.842
HMSRGTLFVDVRGAVAKPGVYELPEKSRVFQAVEAAGGLLPEALERLVNQAAELTDGQQVYIPFEGEE	0.405
HMSRLLRTDAHLQYAAERGLPVTASAYTPVFAGAKQYTGRIESFDAQTIRFADGPAVERKAVARLEAE	0.104
HMSRLLTTRQREVFEVATREGFWDVPRRINLSELAKVLGVAKSTLSSQLQRIESAVFHAFTDEIRRQS	-2.09
HMSRMLTVKQREVFDLAMREGYWETPRRITLTMLASLLSVSKSTLSVQLHKIEGTVLSSFSDEVRRRS	-1.87
HMSRQDYLQTIYRLSVGKGYTTNKKIADFLSVSKPSVTEMIGKLQGEGLVAMDGAHIFLTEDGAEQ	-0.595
HMSRVTVDVNPDVLQWAIDKKGKGDIKNKFPKIDEWLNGISKPTIHQLENFAKYVSVPFGYLLLSKPPVE	0.208
HMSRYQDIANDIEKDIIEKKYTRKLPEQFELAQKYQTSRVTIVHALKILQNKKLIRTVKGHGTFITS	-1.84
HMSSDEDELESIIKRVFADNPIELERLQNGEDKLIKFFMGLVMRQTKGKYPPKIIIDLLNKS	-0.599
HMSSDLDQYMKNIRKQHNLSKREFAKQLGISAATIVRIENGITVSPSKNLISKLAYYLQKSEVEILQDIQS	-1.16
HMSSEMATLRSIVDNKQAEKVHGMMVDMFTASAMVQVYDKVNDENQAKMREMLKTQKGFQRMADFALSKI	-0.143
HMSSEPASLVGKTGVAASVLRPSGRVEVNGEYYDAVSINGFIEKGESVFVHKYENAQLYVSKNSE	0.162
HMSSESIKTDKNVGVGSTLEELEKAYGSDYTLSGKMYRYYQDDNSKYMYFFILNDVVQYYGYGIDV	-1.65
HMSSIDLTARSGRAALKHRLSLLGYEFSKIELETLYVRFIELADEKKLLHDEDLIELVKEKN	-3.12
HMSSIRDVVPEGLLSDREKLVLVLAFDRDLDGPDMARTLGISANTVRVLKARALKKLRQAGIQP	-0.954
HMSSIVLTARSGRAALAYRVKSIGVDLSKDQLDLVYKTFLGFADKKKEIIDTDIPQILKASGI	-2.74
HMSSIYVYPNPTANRIYIQADNIKKAELFDLMGRKVRSTNQPQIDISRLSRGNYILQVKTQNNTQSFKIIK	-0.705
HMSSKAVLEKFEALFIDQMLQSMRKATVRSELFDSEGIKLYESLFDKEISEELAKSGGLGLTKDLEQQL	-1.36
HMSSKFKIVGEILSIKKSDILYIIEILSNNEVVKATAVEDEIKDLKIGDKILLSSKAFNPIVNK	-2.29
HMSSLTDNFVKALSYYLALSGKSKKEVADGIGIPPTTFSSWSNGKHLPDMDRLQNLATYLGAPVSEFFDFT	0.238
HMSSPVGIAQATTYVYVRAGHSMQAAKVGVLSPGEKVGVTGRSAQGFSEVVYNGVHRWVGSRYLSPT	-4.43
HMSSQWWYSAGGERKGPVDFATLRGLYVQGAIDGRTLAWREDMQGWEAVNDIPDLEPLRRAVPPEL	-0.0747
HMSSRSLSYSDFIERVDAGQVSKVVMDGERLVVVGQDGTSYVTIKPPGDQVTENLSRELISKGVEVEAEPQ	-0.0305
HMSSRSLTYSDFIERVDAGQVDAVTLDGERIVIRAKDGNTYVAIKPQGEDVTGSLTRDLIAKGVDVEAEPQ	0.204
HMSSSDYDVYNKAINLMLNLLKEPKSIEEVTASLNITKSQAITWINRALNEGKIIKTNRPVRYVVNN	-1.39
HMSSSYMVRITTSVLNVRKGPGTNYGITTKVKKGEVYTIVAEEKNGNTTWGKLKSGTGYISLGYTER	-1.21

Sequence	soluble fraction (log2)
HMSSSYVYGGNGEIVILSDVSKHLNVYNLNGQKVTDVNLTAGELQRISIATGIYVVGGKKIVV	-3.52
HMSSVGELEVGNIFEGTVNSVRGGKVLLALGNGQMVLAQMDGRVNITPGSSMFFQVKSNDGETVAIRPYTG	-0.247
HMSSWAEGLTERERHTLMWITKGLSNKLIARELGISDSTVKVYVKNLLRKLNVNSRLELAAWVHTHPL	-1.2
HMSSYTQEDVRSGILYMAQLKPRNIEEFVSTLAFSKDDIMDNLSFLVDEGFLKFDADTDTYFNPVPL	-0.374
HMSTADGGYPSIVINDGRVIDTNLQKLGLDRSWLSAELKRQGKGSEKDIFLMTVNQRREVYISVKEA	-1.89
HMSTEAFLGTEGEVVLPLLPDGLGKIRLHVADQDVELPARTGGEPIQIRERVVVVRFRDGIAEVEPAP	0.0378
HMSTEDYLKTIYILESQQGVHGSDVARMLKVTRPTVSIALKALEQEGYVWMDESRLVHLTDSGLQIAKDT	-0.914
HMSTESAHLGERMLNQALRAMHIEPDQITEAHWQKLIRDYGLKKKSEILTDIGLGKRQNVMVAHQLLAMG	-0.539
HMSTFKSYRGKITASSGVNIRTGAGTNYNKNGALTYNSVVTIVDEKKVSGTTWGKLADGRGWISLDYLKK	-2.04
HMSTGGDLTQRERELLGLMARGLSNQEISKRLTIAMPTVKFHVTNILAKLHADNRTEAVLVALKNKLVAL	-1.02
HMSTINGIEKYLSSGLIPYIGPKTAKRIVEKFGLDTLEIIQYNPERLKEIEGIGDKKLKKIVEAFEEQG	-0.245
HMSTISPNAFNFLQQNLNKFSDDAEGKMIKDILSKTTYDEYVKNEKSKTDFNSLLRRQTTTGDDNLNRYIN	-0.00511
HMSTKEFTIHAGEWSYRVSQKLENLGLVSDAKKFDQYLEDNGYSSKIKIGHYTISKDADFEEIAKEIT	0.632
HMSTKRGEILEFLKDFSARKGYAPSVREIMQAVGLKSTASVHYHLSELHKAGLITVDGTKNRAISLA	-1.11
HMSTMKSKWFVSSNPIAGVMKYQAQRKKDVNAVDSSENREASGQWYTDKEEAQAIVDKLNAEEQIKEAGK	-0.0426
HMSTMLPFVMRELVELVMKKKALPLGDALYYIYSSKLYKSLLDKSTKLWYSSTLSLYETLEKEKTEEKRRY	-2.04
HMSTMTDAQRHLFANKLSQLPEMGKYSHGTESYQQFAVRIAEMLQTPKKFKELYPYLQKVGFKA	-0.379
HMSTNYVQVLRAALNGVSGRKLAQQYRVSRDTVAILLRQAKIQGWQRAEDLENITEEDLVALLSG	-2.43
HMSTPLPTGLPRGTIIEYTVQTDETLAIIAAKFNSTVDDIMTRNKITDPNTIYAGQILKVAINLVTP	-1.62
HMSTPVPIEGQPTENLNLRDQPSTSGKILTTIPKGKTVTILSEKNANGWYKVSYNGKTGYVSGSYFKVTK	0.916
HMSTSERLKQVMEVKGFNLKTFSEQADIPYRTLQNYILTNREPSAESLAKLHSQLGINLNWLMSGKGEMF	-0.685
HMSTSIADNSSITYKVRKGDSLASIAKRHGVNINDVMRWNSVITKASQIQPGDMLTLYVRDS	0.148
HMSTTALLEKMVRYIRTLPVISQVVLSLHYYRGMELREIASELDITESRASQLHTTAVLGIRDLLSSY	-3.11
HMSTTGIVKWFNEEKGFGFITQDQGGADVFVHYRAIASEGFKTLAEGQKVSFEVEQGQKGLQAANVQA	0.333
